Patent publication US20160159919A1 (Chugai, published 2016)

B1: H3-G1d/LB-k (antibody, human IgG1, kappa, V domains shown)
VH: QDQLVQSGAEVKKPGASVKVSCKASGFNIKDTYIQWVRQAPGQGLEWMGRIDPLNGNTKYVDKFQGRVTITADTSTNTAYMELSSLRSEDTAVYYCVRSGTLFDFWGQGTLVTVSS
VL: DIQMTQSPSSLSASVGDRVTITCKASQDIHKYIAWYQQKPGQAPRLLIQYTSTLQPGVPSRFSGSGSGTDYTFTISSLQPEDIATYYCLQYDNLRTFGGGTKVEIKR
B2: H66-G1d/LB-k (antibody, human IgG1, kappa, V domains shown)
VH: QDQLVQSGAEVKKPGASVKVSCKASGFNIKDTYIQWVRQAPGQGLEWMGRIDPLVGNTKYVPKFQGRVTITADTSTNTAYMELSSLRSEDTAVYYCVRSGTLFDFWGQGTLVTVSS
VL: DIQMTQSPSSLSASVGDRVTITCKASQDIHKYIAWYQQKPGQAPRLLIQYTSTLQPGVPSRFSGSGSGTDYTFTISSLQPEDIATYYCLQYDNLRTFGGGTKVEIKR
notes: also called H66-G1/LB-k
B3: H6-G1d/LB-k (antibody, human IgG1, kappa, V domains shown)
VH: QDQLVQSGAEVKKPGASVKVSCKASGFNIKDTYIQWVRQAPGQGLEWMGRIDPLNGNTKYVPQFQGRVTITADTSTNTAYMELSSLRSEDTAVYYCVRSGTLFDFWGQGTLVTVSS
VL: DIQMTQSPSSLSASVGDRVTITCKASQDIHKYIAWYQQKPGQAPRLLIQYTSTLQPGVPSRFSGSGSGTDYTFTISSLQPEDIATYYCLQYDNLRTFGGGTKVEIKR
B4: H23-G1d/LB-k (antibody, human IgG1, kappa, V domains shown)
VH: QDQLVQSGAEVKKPGASVKVSCKASGFNIKDTYIQWVRQAPGQGLEWMGRIDPLNGSTKYVPKFQGRVTITADTSTNTAYMELSSLRSEDTAVYYCVRSGTLFDFWGQGTLVTVSS
VL: DIQMTQSPSSLSASVGDRVTITCKASQDIHKYIAWYQQKPGQAPRLLIQYTSTLQPGVPSRFSGSGSGTDYTFTISSLQPEDIATYYCLQYDNLRTFGGGTKVEIKR
notes: also called H23-G1/LB-k
B5: H44-G1d/LB-k (antibody, human IgG1, kappa, V domains shown)
VH: QDQLVQSGAEVKKPGASVKVSCKASGFNIKDTYIQWVRQAPGQGLEWMGRIDPLNGNTKYSPKFQGRVTITADTSTNTAYMELSSLRSEDTAVYYCVRSGTLFDFWGQGTLVTVSS
VL: DIQMTQSPSSLSASVGDRVTITCKASQDIHKYIAWYQQKPGQAPRLLIQYTSTLQPGVPSRFSGSGSGTDYTFTISSLQPEDIATYYCLQYDNLRTFGGGTKVEIKR
B6: H40-G1d/LB-k (antibody, human IgG1, kappa, V domains shown)
VH: QDQLVQSGAEVKKPGASVKVSCKASGFNIKDTYIQWVRQAPGQGLEWMGRIDPLNGQTKYVPKFQGRVTITADTSTNTAYMELSSLRSEDTAVYYCVRSGTLFDFWGQGTLVTVSS
VL: DIQMTQSPSSLSASVGDRVTITCKASQDIHKYIAWYQQKPGQAPRLLIQYTSTLQPGVPSRFSGSGSGTDYTFTISSLQPEDIATYYCLQYDNLRTFGGGTKVEIKR
notes: also called H40-G1/LB-k
B7: H43-G1d/LB-k (antibody, human IgG1, kappa, V domains shown)
VH: QDQLVQSGAEVKKPGASVKVSCKASGFNIKDTYIQWVRQAPGQGLEWMGRIDPLNGNTKYRPKFQGRVTITADTSTNTAYMELSSLRSEDTAVYYCVRSGTLFDFWGQGTLVTVSS
VL: DIQMTQSPSSLSASVGDRVTITCKASQDIHKYIAWYQQKPGQAPRLLIQYTSTLQPGVPSRFSGSGSGTDYTFTISSLQPEDIATYYCLQYDNLRTFGGGTKVEIKR
B8: H9-G1d/LB-k (antibody, human IgG1, kappa, V domains shown)
VH: QDQLVQSGAEVKKPGASVKVSCKASGFNIKDTYIQWVRQAPGQGLEWMGRIDPLNGNTKYVPKFQDRVTITADTSTNTAYMELSSLRSEDTAVYYCVRSGTLFDFWGQGTLVTVSS
VL: DIQMTQSPSSLSASVGDRVTITCKASQDIHKYIAWYQQKPGQAPRLLIQYTSTLQPGVPSRFSGSGSGTDYTFTISSLQPEDIATYYCLQYDNLRTFGGGTKVEIKR
B9: H57-G1d/LB-k (antibody, human IgG1, kappa, V domains shown)
VH: QDQLVQSGAEVKKPGASVKVSCKASGFNIKDTYIQWVRQAPGQGLEWMGRIDPLTGNTKYVPKFQGRVTITADTSTNTAYMELSSLRSEDTAVYYCVRSGTLFDFWGQGTLVTVSS
VL: DIQMTQSPSSLSASVGDRVTITCKASQDIHKYIAWYQQKPGQAPRLLIQYTSTLQPGVPSRFSGSGSGTDYTFTISSLQPEDIATYYCLQYDNLRTFGGGTKVEIKR
notes: also called H57-G1/LB-k
B10: H8-G1d/LB-k (antibody, human IgG1, kappa, V domains shown)
VH: QDQLVQSGAEVKKPGASVKVSCKASGFNIKDTYIQWVRQAPGQGLEWMGRIDPLNGNTKYVPKFEGRVTITADTSTNTAYMELSSLRSEDTAVYYCVRSGTLFDFWGQGTLVTVSS
VL: DIQMTQSPSSLSASVGDRVTITCKASQDIHKYIAWYQQKPGQAPRLLIQYTSTLQPGVPSRFSGSGSGTDYTFTISSLQPEDIATYYCLQYDNLRTFGGGTKVEIKR
B11: H31-G1d/LB-k (antibody, human IgG1, kappa, V domains shown)
VH: QDQLVQSGAEVKKPGASVKVSCKASGFNIKDTYIQWVRQAPGQGLEWMGRIDPLNGNTKYVEKFEGRVTITADTSTNTAYMELSSLRSEDTAVYYCVRSGTLFDFWGQGTLVTVSS
VL: DIQMTQSPSSLSASVGDRVTITCKASQDIHKYIAWYQQKPGQAPRLLIQYTSTLQPGVPSRFSGSGSGTDYTFTISSLQPEDIATYYCLQYDNLRTFGGGTKVEIKR
B12: H41-G1d/LB-k (antibody, human IgG1, kappa, V domains shown)
VH: QDQLVQSGAEVKKPGASVKVSCKASGFNIKDTYIQWVRQAPGQGLEWMGRIDPLNGNTKYHPKFQGRVTITADTSTNTAYMELSSLRSEDTAVYYCVRSGTLFDFWGQGTLVTVSS
VL: DIQMTQSPSSLSASVGDRVTITCKASQDIHKYIAWYQQKPGQAPRLLIQYTSTLQPGVPSRFSGSGSGTDYTFTISSLQPEDIATYYCLQYDNLRTFGGGTKVEIKR
B13: H45-G1d/LB-k (antibody, human IgG1, kappa, V domains shown)
VH: QDQLVQSGAEVKKPGASVKVSCKASGFNIKDTYIQWVRQAPGQGLEWMGRIDPLNGNTKYTPKFQGRVTITADTSTNTAYMELSSLRSEDTAVYYCVRSGTLFDFWGQGTLVTVSS
VL: DIQMTQSPSSLSASVGDRVTITCKASQDIHKYIAWYQQKPGQAPRLLIQYTSTLQPGVPSRFSGSGSGTDYTFTISSLQPEDIATYYCLQYDNLRTFGGGTKVEIKR
B14: H5-G1d/LB-k (antibody, human IgG1, kappa, V domains shown)
VH: QDQLVQSGAEVKKPGASVKVSCKASGFNIKDTYIQWVRQAPGQGLEWMGRIDPLNGNTKYVPSFQGRVTITADTSTNTAYMELSSLRSEDTAVYYCVRSGTLFDFWGQGTLVTVSS
VL: DIQMTQSPSSLSASVGDRVTITCKASQDIHKYIAWYQQKPGQAPRLLIQYTSTLQPGVPSRFSGSGSGTDYTFTISSLQPEDIATYYCLQYDNLRTFGGGTKVEIKR
B15: H42-G1d/LB-k (antibody, human IgG1, kappa, V domains shown)
VH: QDQLVQSGAEVKKPGASVKVSCKASGFNIKDTYIQWVRQAPGQGLEWMGRIDPLNGNTKYKPKFQGRVTITADTSTNTAYMELSSLRSEDTAVYYCVRSGTLFDFWGQGTLVTVSS
VL: DIQMTQSPSSLSASVGDRVTITCKASQDIHKYIAWYQQKPGQAPRLLIQYTSTLQPGVPSRFSGSGSGTDYTFTISSLQPEDIATYYCLQYDNLRTFGGGTKVEIKR
B16: H25-G1d/LB-k (antibody, human IgG1, kappa, V domains shown)
VH: QDQLVQSGAEVKKPGASVKVSCKASGFNIKDTYIQWVRQAPGQGLEWMGRIDPLNGNTKYVPKFQGRVTITADTSTNTAYMELSSLRSEDTAVYYCVRSGTSFDFWGQGTLVTVSS
VL: DIQMTQSPSSLSASVGDRVTITCKASQDIHKYIAWYQQKPGQAPRLLIQYTSTLQPGVPSRFSGSGSGTDYTFTISSLQPEDIATYYCLQYDNLRTFGGGTKVEIKR
B17: H10-G1d/LB-k (antibody, human IgG1, kappa, V domains shown)
VH: QDQLVQSGAEVKKPGASVKVSCKASGFNIKDTYIQWVRQAPGQGLEWMGRIDPLNGNTKYVPKFQERVTITADTSTNTAYMELSSLRSEDTAVYYCVRSGTLFDFWGQGTLVTVSS
VL: DIQMTQSPSSLSASVGDRVTITCKASQDIHKYIAWYQQKPGQAPRLLIQYTSTLQPGVPSRFSGSGSGTDYTFTISSLQPEDIATYYCLQYDNLRTFGGGTKVEIKR
B18: H61-G1d/LB-k (antibody, human IgG1, kappa, V domains shown)
VH: QDQLVQSGAEVKKPGASVKVSCKASGFNIKDTYIQWVRQAPGQGLEWMGRIDPLKGNTKYVPKFQGRVTITADTSTNTAYMELSSLRSEDTAVYYCVRSGTLFDFWGQGTLVTVSS
VL: DIQMTQSPSSLSASVGDRVTITCKASQDIHKYIAWYQQKPGQAPRLLIQYTSTLQPGVPSRFSGSGSGTDYTFTISSLQPEDIATYYCLQYDNLRTFGGGTKVEIKR
notes: also called H61-G1/LB-k
B19: H7-G1d/LB-k (antibody, human IgG1, kappa, V domains shown)
VH: QDQLVQSGAEVKKPGASVKVSCKASGFNIKDTYIQWVRQAPGQGLEWMGRIDPLNGNTKYVPKFDGRVTITADTSTNTAYMELSSLRSEDTAVYYCVRSGTLFDFWGQGTLVTVSS
VL: DIQMTQSPSSLSASVGDRVTITCKASQDIHKYIAWYQQKPGQAPRLLIQYTSTLQPGVPSRFSGSGSGTDYTFTISSLQPEDIATYYCLQYDNLRTFGGGTKVEIKR
B20: H65-G1d/LB-k (antibody, human IgG1, kappa, V domains shown)
VH: QDQLVQSGAEVKKPGASVKVSCKASGFNIKDTYIQWVRQAPGQGLEWMGRIDPLFGNTKYVPKFQGRVTITADTSTNTAYMELSSLRSEDTAVYYCVRSGTLFDFWGQGTLVTVSS
VL: DIQMTQSPSSLSASVGDRVTITCKASQDIHKYIAWYQQKPGQAPRLLIQYTSTLQPGVPSRFSGSGSGTDYTFTISSLQPEDIATYYCLQYDNLRTFGGGTKVEIKR
notes: also called H65-G1/LB-k

Target: T1, soluble human EREG fragment having a mature EGF domain structure (R&D Systems cat. no. 1195-EP/CF) (human, UniProt O14944 63-108)
T1 construct: bought; coated on ELISA plates; also called human epiregulin; recombinant human Epiregulin
T1 sequence (O14944 63-108 limits assumed): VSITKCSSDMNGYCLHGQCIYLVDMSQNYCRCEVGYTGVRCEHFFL
Assay: competitive ELISA on coated soluble human EREG fragment
Description: The soluble human EREG fragment having a mature EGF domain structure (the polypeptide of SEQ ID NO: 34 which corresponds to ⁶³Val to ¹⁰⁸Leu) was purchased from R&D Systems (cat. no. 1195-EP/CF). The soluble human EREG fragment was used to coat nunc immunoplates, and after blocking with a BSA-containing solution, the competitive binding reactivity between mouse hybridoma-derived EP27 and the purified humanized anti-EREG antibody was analyzed. Mouse hybridoma-derived EP27 and a purified humanized anti-EREG antibody were added to the plates, and after two hours of incubation, the plates were washed; and an alkaline phosphatase-labeled anti-human IgG antibody (Zymed) was added to each well of the plates and then allowed to react. Each well was washed, and then the amount of bound antibody (A405/655 detection value) was determined by addition of a test reagent, Sigma p-Nitrophenyl phosphate Tablets.

Binding result, binds:
B1
B2
B3
B4
B5
B6
B7
B8
B9
B10
B11
B12
B13
B14
B15
B16
B17
B18
B19
B20
